± gives the uncertainty stated by the source.
Assay: self-splicing fitness, log relative to wild type (ln ratio); higher = more splicing; Tetrahymena group I intron in knt gene, E. coli kanamycin selection, DiMSum; sequences stand for … in CUCUCU…GGAGGGAAAAGUUAUCAGGCAUGCACCUGGUAGCUAGUCUUUAAACCAAUAGAUUGCAUCGGUUUAAAAGGCAAGACCGUCAAAUUGCGGGAAAGGGGUCAACAGCCGUUCAGUACCAAGUCUCAGGGGAAACUUUGAGAUGGCCUUGCAAAGGGUAUGGUAAUAAGCUGACGGACAUGGUCCUAACCACGCAGCCAAGUCCUAAGUCAACAGAUCUUCUGUUGAUAUGGAUGCAGUUCACAGACUAAAUGUCGGUCGGGGAAGAUGUAUUCUUCUCAUAAGAUAUAGUCGGACCUCUCCUUAAUGGGAGCUAGCGGAUGAAGUGAUGCAACACUGGAGCCGCUGGGAACUAAUUUGUAUGCGAAAGUAUAUUGAUUAGUUUUGGAGUACUCGUGGUCG
How it was run: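 DiMSum derived fitness as the error-weighted combination of fold changes across replicates, kanamycin versus no kanamycin, normalised to wild type. E. coli BL21(DE3) held the library, which randomised all eight P1ex-region intron nucleotides within the knt kanamycin-resistance gene on pET-22b(+). Six replicate transformations grew overnight at 37°C or 30°C on LB agar with or without 25 μg/mL kanamycin, also containing 100 μg/mL carbenicillin, 50 μM IPTG and 0.2% rhamnose, and pooled colonies were amplicon-sequenced on an Illumina HiSeq 2500.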

Sequence | self-splicing fitness (ln) (30 °C) | self-splicing fitness (ln) (37 °C)
ACCAAGCAAUAUUACGCCCU | -0.139 ± 0.091 | 0.663 ± 0.14
ACAGAGCAAUAUUACGCUCA | -1.29 ± 0.2 | -1.26 ± 0.18
GAUUAGCAAUAUUACGCAUG | -0.728 ± 0.14 | -0.334 ± 0.17
CUGAAGCAAUAUUACGUACA | -2.36 ± 0.21 | -1.39 ± 0.25
ACGCAGCAAUAUUACGCCUU | -0.484 ± 0.082 | 0.1 ± 0.095
GGCCAGCAAUAUUACGGUCA | -0.963 ± 0.1 | -0.389 ± 0.1
UACUAGCAAUAUUACGGCUG | -0.825 ± 0.14 | -0.545 ± 0.19
UCGAAGCAAUAUUACGAUCA | -1.46 ± 0.18 | -0.436 ± 0.23
ACUAAGCAAUAUUACGAUUA | -0.928 ± 0.12 | -0.502 ± 0.1
GCCGAGCAAUAUUACGUUUU | -3.18 ± 0.18 | -1.75 ± 0.14
UUAUAGCAAUAUUACGGCCU | -1.48 ± 0.18 | -1.09 ± 0.23
UUCGAGCAAUAUUACGCUUA | -2.79 ± 0.21 | -1.58 ± 0.18
CAAAAGCAAUAUUACGACAG | -0.12 ± 0.062 | -0.154 ± 0.083
UUAGAGCAAUAUUACGCGGA | -1.29 ± 0.1 | -0.00507 ± 0.11
ACGUAGCAAUAUUACGUCAG | -3.39 ± 0.18 | -2.34 ± 0.2
UGAAAGCAAUAUUACGGUGC | -2.02 ± 0.38 | -2.61 ± 0.36
GUAAAGCAAUAUUACGUACC | -3.89 ± 0.2 | -2.55 ± 0.2
UGCGAGCAAUAUUACGACCA | -0.371 ± 0.18 | –
UUACAGCAAUAUUACGACAC | -3.53 ± 0.43 | –
AAUGAGCAAUAUUACGUCGC | -3.95 ± 0.29 | -2.79 ± 0.32
AGUCAGCAAUAUUACGCAAA | -1.62 ± 0.11 | -1.01 ± 0.15
GAUAAGCAAUAUUACGUUGU | -2.12 ± 0.089 | -2.6 ± 0.11
AGACAGCAAUAUUACGACCG | -1.4 ± 0.12 | -0.429 ± 0.14
AGUGAGCAAUAUUACGGGCG | -1.04 ± 0.19 | -0.922 ± 0.27
AUUAAGCAAUAUUACGAUGC | -2.09 ± 0.15 | -1.86 ± 0.17
UAAUAGCAAUAUUACGCGAU | -3.2 ± 0.28 | -1.86 ± 0.24

Sequence | self-splicing fitness (ln) (30 °C) | self-splicing fitness (ln) (37 °C)
CAUGAGCAAUAUUACGCCUG | -2.93 ± 0.21 | -2.02 ± 0.35
CGACAGCAAUAUUACGUUUG | -3.09 ± 0.15 | -1.19 ± 0.11
AUCUAGCAAUAUUACGAUCU | -1.03 ± 0.13 | 0.148 ± 0.15
UACCAGCAAUAUUACGGAUA | -1.12 ± 0.077 | -0.394 ± 0.078
UCAGAGCAAUAUUACGCCUG | -3.63 ± 0.3 | –
GGGGAGCAAUAUUACGUUUA | -2.13 ± 0.28 | -2.77 ± 0.48
GCAUAGCAAUAUUACGUUUA | -2.47 ± 0.16 | -1.61 ± 0.12
ACUUAGCAAUAUUACGCCCC | -0.135 ± 0.33 | –
AAGUAGCAAUAUUACGCACG | -1.5 ± 0.13 | 0.587 ± 0.13
CUCGAGCAAUAUUACGAAGG | -2.2 ± 0.27 | -1.38 ± 0.41
GUUCAGCAAUAUUACGACUC | 0.0553 ± 0.47 | –
CGCAAGCAAUAUUACGGUUG | -2.25 ± 0.098 | -1.18 ± 0.096
GCACAGCAAUAUUACGGCGA | -1.16 ± 0.083 | -0.758 ± 0.095
GCUUAGCAAUAUUACGGCCU | -1.05 ± 0.18 | -1.57 ± 0.25
UGGGAGCAAUAUUACGUUGC | -3.43 ± 0.4 | -1.53 ± 0.23
AGAUAGCAAUAUUACGUCUC | -3.01 ± 0.21 | -3.05 ± 0.4
GUUCAGCAAUAUUACGUGCA | -0.645 ± 0.11 | -0.382 ± 0.11
ACCGAGCAAUAUUACGUUGU | -3.67 ± 0.17 | -1.5 ± 0.12
AGGCAGCAAUAUUACGCUGA | -2.21 ± 0.13 | -1.84 ± 0.21
CCCCAGCAAUAUUACGACUC | -2.97 ± 0.12 | -2.11 ± 0.21
AUCCAGCAAUAUUACGCGAU | -1.86 ± 0.15 | -2.42 ± 0.25
GGCAAGCAAUAUUACGCGCA | 0.145 ± 0.077 | 0.461 ± 0.11
UCUUAGCAAUAUUACGUUGC | -3.46 ± 0.47 | –
UAACAGCAAUAUUACGCCAC | -3.93 ± 0.35 | -1.54 ± 0.23
UGCCAGCAAUAUUACGGAGG | -3.51 ± 0.17 | -1.83 ± 0.17
CCUCAGCAAUAUUACGGGCA | – | -2.2 ± 0.24

Sequence | self-splicing fitness (ln) (30 °C) | self-splicing fitness (ln) (37 °C)
CCUCAGCAAUAUUACGGGAC | -3.63 ± 0.23 | -1.98 ± 0.26
GCAGAGCAAUAUUACGCUGA | -2.11 ± 0.29 | -0.433 ± 0.19
CCAGAGCAAUAUUACGGGUG | -1.52 ± 0.072 | -0.654 ± 0.096
GCAAAGCAAUAUUACGUGAG | -1.11 ± 0.046 | -0.539 ± 0.067
CGAUAGCAAUAUUACGCGGA | -2.21 ± 0.22 | -0.662 ± 0.15
UUAGAGCAAUAUUACGUGCA | -2.16 ± 0.15 | -0.652 ± 0.16
UGUUAGCAAUAUUACGGGGC | -3.37 ± 0.34 | -3.32 ± 0.46
UCUCAGCAAUAUUACGCAUA | -2.22 ± 0.13 | -0.634 ± 0.12
GCUUAGCAAUAUUACGCCGG | -1.97 ± 0.2 | -1.44 ± 0.22
AACCAGCAAUAUUACGACAG | -2.65 ± 0.083 | -0.775 ± 0.099
GGGAAGCAAUAUUACGUAGU | -3.38 ± 0.18 | -2.18 ± 0.17
CAACAGCAAUAUUACGUACG | -0.0141 ± 0.079 | 0.194 ± 0.11
AAAAAGCAAUAUUACGAAGG | -3.57 ± 0.23 | -1.89 ± 0.23
GGACAGCAAUAUUACGAUCA | -0.381 ± 0.087 | 0.0425 ± 0.11
CUUCAGCAAUAUUACGAUAA | -2.68 ± 0.19 | -1.07 ± 0.14
UCACAGCAAUAUUACGAAGA | -1.18 ± 0.085 | -1.09 ± 0.093
CUCGAGCAAUAUUACGAUUU | -3.73 ± 0.2 | -2.91 ± 0.21
GUGUAGCAAUAUUACGACAG | -2.07 ± 0.42 | –
AGUUAGCAAUAUUACGGAAC | – | -2.72 ± 0.38
GGUAAGCAAUAUUACGAAUU | -1.04 ± 0.11 | -0.205 ± 0.14
CCCUAGCAAUAUUACGUUUA | -2.91 ± 0.14 | -2.16 ± 0.16
UCUAAGCAAUAUUACGGGUA | -1.64 ± 0.11 | -0.58 ± 0.1
GACUAGCAAUAUUACGCUGC | -3.53 ± 0.21 | -2.85 ± 0.28
UUCGAGCAAUAUUACGGCGC | -2.99 ± 0.34 | -2.36 ± 0.39

From the supplement of paper PMC7877785
